In article PMC7773321:

Legend:
Neutrophil elastase = Neutrophil elastase (UniProt P08246)
Chain of UniProt P08246 (P08246 30-267): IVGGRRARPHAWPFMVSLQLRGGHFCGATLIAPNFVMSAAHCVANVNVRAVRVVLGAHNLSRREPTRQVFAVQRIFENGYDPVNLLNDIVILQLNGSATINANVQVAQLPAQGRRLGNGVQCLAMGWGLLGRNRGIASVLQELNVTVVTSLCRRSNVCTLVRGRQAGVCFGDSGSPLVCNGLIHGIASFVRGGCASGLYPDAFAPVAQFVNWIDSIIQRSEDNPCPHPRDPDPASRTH

Substance: Ecotin from Campylobacter rectus, C-terminal His6 fusion (natural protein)
- IC50 of inhibition of NE activity (fluorometric NE activity assay, 25 nM NE, 0-50 nM ecotin, 37°C) (Neutrophil elastase): 4.49 nM
- cleavage of the FRET peptide Dabcyl-…-Edans by factor Xa with 15 nM ecotin, relative fluorescence units after 60 min (0-60 min followed; 350 RFU without ecotin) (Factor Xa): 48 RFU

Substance: Ecotin from Campylobacter showae, C-terminal His6 fusion (natural protein)
- IC50 of inhibition of NE activity (fluorometric NE activity assay, 25 nM NE, 0-50 nM ecotin, 37°C) (Neutrophil elastase): 4.78 nM
- cleavage of the FRET peptide Dabcyl-…-Edans by factor Xa with 15 nM ecotin, relative fluorescence units after 60 min (0-60 min followed; 350 RFU without ecotin) (Factor Xa): 17.7 RFU

Substance: Ecotin from E. coli, C-terminal His6 fusion (from UniProt P23827 21-162) (natural protein)
- IC50 of inhibition of NE activity (fluorometric NE activity assay, 25 nM NE, 0-50 nM ecotin, 37°C) (Neutrophil elastase): 4.64 nM
- cleavage of the FRET peptide Dabcyl-…-Edans by factor Xa with 15 nM ecotin, relative fluorescence units after 60 min (0-60 min followed; 350 RFU without ecotin) (Factor Xa): 21.3 RFU
